assay: yeast display, Sf9 membrane polyspecificity reagent, FACS + sequencing; frameworks hold sequencing errors
Procedure, shortened: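 Sorting gates, low and high (top ~1%), were placed on anti-HA fluorescence to track expression and on streptavidin fluorescence to track reagent binding. A clone's polyreactivity label is taken from the gate it came out of. The reagent was 10% biotinylated, detergent-solubilized Sf9 membrane, applied for 1 hour at 4 °C to galactose-induced yeast display cells.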

Row | Sequence | polyreactivity (PSR sort gate)
1 | QVQRVESGGGLVQAGGSLRLSCAASGRTLRYKGLYRQAPGKERELVAAITTGVSTNYADSVKGRFTISRDNAKNTVYLQMNSLKPEDTAVYYCAARARGTVYQYYYWGQGTQVTVSS | high polyreactivity
2 | QVQRVESGGGLVQAGGSLRLSCAASGSIFEGYAMGWYRQAPGKQRELVARITSDDDSTYYADSVKGRFTISRDNAKFSVYLQMNSLIPEDTAVYYCNADYYWTSLAMDSWGQGTQVTVCS | low polyreactivity
3 | QVQRVESGGGLVQAGGSLRLSCAASGSIFVFYAMGWYRQAPGKERELVATISSVGRTNYADSVKGRFTISRDNAKNTVYLQMNSLKPEDTAVYYCAARRFRGSYYWGQGTQVTVSS | high polyreactivity
4 | QVQRVESGGGLVQAGGSLRLSCAASGSIFWRNAMGWSRQAPGKERELVAAITSGGSTDYADSVKGGFRISRDTAKNTVYLQIHSLKPEDPAVYYCAAVTWSGWDGYYYWGQGTQVTVSS | low polyreactivity
5 | QVQRVESGGGLVQAGGSLRLSCAASGSIYRWNARGWSRQATGKERELVAVINSSGGSTYYADSVKGRFTISRDNAKNTVYLQMNSLKPEDTAVYYCAADLFLECSSQYAPNWWPDGWNTYRLLGGYWGQGTQVTVSS | low polyreactivity
6 | QVQRVESGGGLVQAGGSLRLSCAASGSTFARYAMGWYRQAPGKEREFVAAITYSGGRTYYADTVKGRFTISRDNAKNTVYLQMNSLKPEDTAVYYCAARRRYRYDYWGQGTQVTVSS | high polyreactivity
7 | QVQRVESGGGLVQAGGSLRLSCAASGSTFDRNAMGWYRQAPGKERELVAAIDYSGGSTYYADSVKGRFTISRDNAKNTVYLQMNSLKPEDTAVYYCAARVDGPDYSDGNYWGQGSQVTVSS | low polyreactivity
8 | QVQRVESGGGLVQAGGSLRLSCAASGSTFEYYAMGWYRQAPGKERELVAAISGGGSTNYADSVKGRFTISRDNAKNTVYLQMNSLTPEVTAVYYCNASDVGSRTSNYWGQGTQVTVSS | low polyreactivity
9 | QVQRVESGGGLVQAGGSLRLSCAASGSTIAKNAMGWYRQAPGKERELVAAISRGGNTYYADSVKGRFTISRDNAKNTVYLQMNSLKPEDTAVYYCAARYLYRSLKMDYWGQGTQVTVSS | high polyreactivity
10 | QVQRVESGGGLVQAGGSLRLSCAASGVIFDDNAMGWYRQAPGKERELVAAITYRGGSTYYADSVKGRFTISRDNAKNTVYLQMNSLKPEDTAVYYCAAGGTARDDSWGQGTQVTVSS | low polyreactivity
11 | QVQRVESGGGLVQAGGSLRLSCAASRSIVNIYAMGWDRPAPGKERELVATITGIADSTYYADSVKGRFTISRDNAKNTVYLQMNSLKPEDTAVYYCAIYVSWPLYYYWGHGTQVTVSS | low polyreactivity
12 | QVQRVESGGGLVQAGGSLRLSCAPSGSTFPSYAMGWYRQAPGKERELVAAITRRGGRTYYADSVKGRFTISRDNAKKTVYLQMNSLKPEDTAVYYCNRVSRKILDGDYDYWGQGTQVTVSS | high polyreactivity
13 | QVQRVESGGGLVQAGGSLRLSCPASGRIFRYYAMGWYRPAPGKEREMVARITRNGGTTYYADSVKGRFTISRDNAKNTVYLQMNSLKPEDTAVYYCAATYSVPYYGAWPEYDYWGQGTQVTVSS | high polyreactivity
14 | QVQRVESGGGLVQAGGSLRLSCPASGSTKFNAMGWNRQPPGKERELVATITANGDSTYYADSVKGRFTISRDNAKNTVYLQMNSLKPEDTAVYYCNADAYIRMDSWGQGTQVTVSS | low polyreactivity
15 | QVQRVESGGGLVQAGRSLRLSCAASGRTFTVYAMGWYRQAPGKERELVAGIRRGDSTYYADSVKGRFTISRDNAKHTVYLQMNSLKPEDTAVYYCNARTSGSSYYYWGQGTQVTVCS | high polyreactivity
16 | QVQRVESGGGLVQARGSLRLSCAASGSTFPAYAMGWYRQARGKEREWVATITYTGGSTFYADSVKGRFTISRDNAKNTVYLQMNILKPEDTEVYYCAADRGDQEDEFDYWGQGTQVTVSS | low polyreactivity
17 | QVQRVESGGRLVQAGGILRVSCAASGGTFGINAMGWYRQSPGKEREFVAAITRGDGSTYYADSVKGRFTISRDNAKNTVFIQMKSLKPEDTAVYYCAKRYFVYYSMDYWGQGTQVTVSS | low polyreactivity
18 | QVQRVESGRGLVQAGGSLRLSCAASGRTFRINAMGWYRQSPGKERELVASINSGGRTYYADSVKGRFTISRDNAKNTVYLQMNSLKPEDTAVYYCAAAGGRTGDYWGQGTQVTGSS | high polyreactivity
19 | QVQRVESRGGLVKSGGSLRLSSASSGSTFRWYAMGWYRQAPGKERELVARINTRGGGTYYADSVKGRFTISRDNAKNTVYLQMNSLKPEDTAVYYCAAYSSWSGGLGGDYYWGQGTQVTVSS | low polyreactivity
20 | QVQRVESRVSLVQEGGSLRLSCASSGLIYYRYTMGCYINAPVKEREVFAAISSGGRTYYADSVKGRFTISRDNAKNTVYLQMNSLKPEDTAVYYCATRVYSVHAPSAVPIGGYYWGQGTQVTVSS | high polyreactivity
21 | QVQRVESVGGLVQAGGRLRLSCAASGRTFVYYTMGWYRQAPGKERELVAAISWNGDDTYYADSVKGRFTISRDNAKNTVYLQMNSLKPEDTAVYYCAKESYTDYDTYYYWGQGTQVTVSS | low polyreactivity
22 | QVQVEESGGGLVQAGGSLRLSCAASGSIFNRYAMGWYRQAPGKERELVAAISRSGSTYYADSVKGRFTISRDNAKNTVYLQMNSLKAEDTEVYYCNARGTTHHTSYDYWGQGTQVTVSS | low polyreactivity

Row | Sequence | polyreactivity (PSR sort gate)
23 | QVQVVESGGALVQEGGSLRISCAASGSIFAIYVLGWSRQAPGKERELVAAITGSGGSTYYADSVKGRFTISRDNAKITVYVQMNSQKPEDTAVYYCAARVLRVRTLTTTWGQGTQVTVSS | high polyreactivity
24 | QVQVVESGGGFVQAGGSLRLSCAASGFTYYSYAMGWYRQAPGKEREFVAAGSTYYADSVKGRFTISRDNAKNTVYLQMNSLTPEDTAVYYCAADPWIYVQSYGYWGQGTQVTVSS | low polyreactivity
25 | QVQVVESGGGLLQAGGSLRLSCAASGSTFGWYAMGWYRQAPWKERELVAANTGDSASTYYADSVKGRFTISRDNAKNTVYLQMNSLKPEDTAVYYCAASKFSDFGYQAVIGYGYWGQGTQVTVSS | low polyreactivity
26 | QVQVVESGGGLLQAGGSLRLSCASSGSTFQYNAMGRYRPAPRKERELVAVITRRGGRTYYADSVKGRFTISRDNAKNTVYLQMNSLKPEDTAVYYCAAYYDYTHRFYYWGQGTQVTVSS | high polyreactivity
27 | QVQVVESGGGLVKAGGSLSLSCDASGITFVAYAMGWYRQAPGKERELVAAISYNGGSTNYADSVKGRFTISRDNAMNTVYLQINSLKPEDTAVFYCAADLADFYPRFNYWGQGTQVTVSS | low polyreactivity
28 | QVQVVESGGGLVNAAGSLRLSCAPSVSTSKWYTMGWDRQAPGKERELVAAITGSGGSTFYADSVKGRFTISRDNAKNTVYLQMHSLKQEDTAVYYCAADVYGGGVSFRFRYDSWGQGTQVTVSS | low polyreactivity
29 | QVQVVESGGGLVPAGGSLRLSCAASGRIFADNDMGWYRQAPGKERELVAGISSGGGTYADSVKGRFSISRDNAKNTVSVQTNSPKPEDTAVHYCNALHAYYVLTPYDYWGQGTQVTVSS | low polyreactivity
30 | QVQVVESGGGLVQAGGSLRLSCAASGFIFSFYAMGWYRQAPGKERELVAAINWSGGSTYYADSVKGRFTISRDNAKNTVYLQMNSLKPEDTAVYYCNAVQYFSIPKPVWLFVLRYYYWGQVTQVTVSS | low polyreactivity
31 | QVQVVESGGGLVQAGGSLRLSCAASGFIFWEYAMGWYRQAAVKECELVSAISTSGGSTYYADSVKGRFTISRDNAMNSVYLQKNCLKQEDTAVYYCATDVYSGPLLKYDYWGQGTKVTVSS | low polyreactivity
32 | QVQVVESGGGLVQAGGSLRLSCAASGFIFYVYAMGWYTQAPGKERELVAAISKRSGGTRYADSVKGRFTISRDNAKNTVYLQMNSLKPEDTAVYYCNKYGQVPGYFSLDYWGQGTQVTVSS | high polyreactivity
33 | QVQVVESGGGLVQAGGSLRLSCAASGFTFAWYTMGWYRQAPGKERELVAAISTGGNTYYADSVKGRFTISRDNAKNTVYLQMNSLKPEDTAVYYCATRPRGQTYNYWGQVTQVTVSS | high polyreactivity
34 | QVQVVESGGGLVQAGGSLRLSCAASGFTFSFYAMGWYRQAPGKERELVAAISSGGTTSYADSVKGRFTISRDYAKNTVYLQMNSLKPEDTAVYYCATDVYYYRTGAYTSTKPYDYWGQGTQVTVSS | low polyreactivity
35 | QVQVVESGGGLVQAGGSLRLSCAASGGTFGGYAMGWYRQAPGKERELVAAISSGGSTYYADSVKGRFTISRDNAKNTLYLQMNSLKPEDTAVYYCAAETVLGYWYYRKYYYWGQGTQVTVSS | high polyreactivity
36 | QVQVVESGGGLVQAGGSLRLSCAASGIIFGAYAMGWYRQAPWKEMELVAAITYSSGSTYYADSVKGRFTISRDNSKNTVYLQMNSLKPEDTAVYYCDKTNFSQSSRFNYDYWGQGTQVTVSS | low polyreactivity
37 | QVQVVESGGGLVQAGGSLRLSCAASGINFLTNAMGWYRQAPGKERELVAAISQSGGSTYYADSVKGRFTISRDHAKNTVYLQMNSLKPEDTAVYYCAAPQRYPRFYYWGQGTQVTVSS | high polyreactivity
38 | QVQVVESGGGLVQAGGSLRLSCAASGLTFIFNAMGWYRQAPGKERELVADISSGVNTNYADSVKGRFSISRDNEKNTVYLQMNSLKTEDTEVHYCADRLAQTTGYGYWGQGTQVNVSS | low polyreactivity
39 | QVQVVESGGGLVQAGGSLRLSCAASGRIFNYYAMGWYRQAPRKERELVAVISRTGVRTHYADSVKGRFTISRDNAKNTVYLQMNCLKPEDTAVYYCNADSYVFRYDYWGQGTQVTVSS | high polyreactivity
40 | QVQVVESGGGLVQAGGSLRLSCAASGRIFPLYAMGWSRQAPGTERELVAAISSGGTTYYADSVKGRFTFSRDNAKNTVYLQMNSLKPEDTAVYYCARRPAQRWGRFDYWGQGTQVTVSS | low polyreactivity
41 | QVQVVESGGGLVQAGGSLRLSCAASGRIFRANAMGGYRKAPGKERELVADISRSAGSTYYADSVKGRFTISRDNAKNTVYLQLNSLKPADTAVYYCAKRGYYSFDYWGQGTQVTVSS | high polyreactivity
42 | QVQVVESGGGLVQAGGSLRLSCAASGSIFVYYTMGWYRQAPGKERELVAAITRGGRTNFADSVKGRFTISRDNAQNSVYLLMNSLNPEDTAVYYCAKGYYWLSTYGDSRYGYWGQGTQVTVSS | high polyreactivity
43 | QVQVVESGGGLVQAGGSLRLSCAASGSIVSHYAMGWYRQAPGKERELVAGISRRGGRTYYADSVKGRFTISRDNAKNTVYLQMNSLKPEDTAVYYCAALRSSSFGYWGQGTQVTVSS | high polyreactivity

Reference: the nanobody polyreactivity screen of Harvey et al. (2022)
